The values below come from article PMC7178897.

Data set [1] is described as follows: SEC; GNL-purified Env from 293F supernatant on a Superdex 200 Increase 10/300 GL column; profile decomposed into aggregates, trimer and dimer/monomer fractions (UNICORN). In general terms: SEC sorts molecules by how far they enter the pores of the column.
The target in data set [2] is CNE5 chimeric UFO trimer with CNE6 gp41_(ECTO) (HIV-1). Put plainly: negative-stain EM; purified Env proteins at 0.05 mg/ml, 2% uranyl acetate, reference-free 2D class averages.
Data set [3] concerns the target CNE107 chimeric UFO trimer with CNE6 gp41_(ECTO) (HIV-1). Described as above.
Data set [4] addresses CNE6 UFO trimer (HIV-1). Briefly: native gel or EMSA.
The target in data set [5] is CNE6 UFO trimer (HIV-1). Briefly: negative-stain EM; purified Env proteins at 0.05 mg/ml, 2% uranyl acetate, reference-free 2D class averages.
Data set [6] concerns the target MG11 chimeric UFO trimer with CNE6 gp41_(ECTO) (HIV-1). The description is as above.
Data set [7] concerns the target MG13 UFO trimer (HIV-1). Put plainly: native gel or EMSA. For orientation: Mobility shift assays separate free from complexed probe on a gel.
Data set [8] concerns the target MG13 UFO trimer (HIV-1). Put plainly: negative-stain EM; purified Env proteins at 0.05 mg/ml, 2% uranyl acetate, reference-free 2D class averages.
Data set [9] addresses BG505 UFO trimer (HIV-1). Put plainly: native gel or EMSA.
Data set [10] addresses BG505 UFO trimer (HIV-1). Briefly: negative-stain EM; purified Env proteins at 0.05 mg/ml, 2% uranyl acetate, reference-free 2D class averages.

For CNE6 UFO trimer, in data set [1], the “trimer content (% of the SEC profile)” value is “as high as 70.1% for CNE6”.

For orientation: stoichiometry N means the number of molecules, sites or subunits per partner or assembly. Take “CNE5 chimeric UFO trimer with CNE6 gp41_(ECTO) (domain or fragment)”: in data set [2], the stoichiometry N came to 3.

With “CNE107 chimeric UFO trimer with CNE6 gp41_(ECTO) (domain or fragment)”, the stoichiometry N in [3] came out at 3.

Turning to MG13 UFO trimer, in data set [1], the “trimer content (% of the SEC profile)” value is reported as 85.6% for MG13.

For the substance BG505 UFO trimer, in data set [1], the “trimer content (% of the SEC profile)” value is given as “a rate of proper trimer folding of about 75.5%”.

On to CNE6 UFO trimer (domain or fragment), for which the stoichiometry N with CNE6 UFO trimer (HIV-1) [4] and with CNE6 UFO trimer (HIV-1) [5] was 3 in each case.

As to “MG11 chimeric UFO trimer with CNE6 gp41_(ECTO) (domain or fragment)”, the stoichiometry N in [6] worked out at 3.

For the substance CNE6 SOSIP trimer, in [1], the “trimer content (% of the SEC profile)” value stood at 21.3% for the SOSIP construct.

As for MG13 UFO trimer (domain or fragment), the stoichiometry N in the data set with MG13 UFO trimer (HIV-1) [7] and with MG13 UFO trimer (HIV-1) [8] was 3 in each case.

For BG505 UFO trimer (domain or fragment), the stoichiometry N with BG505 UFO trimer (HIV-1) [9] and with BG505 UFO trimer (HIV-1) [10] was 3 throughout.
